Measurements published in US11304964B2, “Bolaamphiphilic compounds, compositions and uses thereof” (priority 2012, dated 2022).

What was measured:
[1] = Tenofovir encapsulation in bolaamphiphile vesicles (UV absorbance after Sephadex G50 separation); type: physicochemical; conditions: vesicles with vs without SA, Sephadex G50, absorbance at 260 nm
Procedure: Bolaamphiphiles, cholesterol, and CHMES (2:1:1 mole ratio) are dissolved in chloroform or a suitable solvent. […] The solvents are evaporated under vacuum and the resultant thin films are hydrated in 0.2 mg/mL CF solution in PBS and probe-sonicated (Vibra-Cell VCX130 sonicator, Sonics and Materials Inc., Newtown, Conn., USA) with amplitude 20%, pulse on: 15 sec, pulse off: 10 sec to achieve homogenous vesicle dispersions. Vesicle size and zeta potential were determined using a Zetasizer Nano ZS (Malvern Instruments, UK).
Methods were established to determine quantitatively the amount of the encapsulated tenofovir based on a UV absorption and determined the percent of tenofovir encapsulation by various vesicle formulations (data not shown). […] One objective of this work was to achieve the maximum amount of tenofovir encapsulated per vesicle along with a minimum loss of the non-encapsulated drug. Accordingly, several parameters were examined, such as varying the ratio among the vesicle components, changing the ratio of tenofovir to bolaamphiphiles, varying the pH of the hydration solution and also adding to the formulation additional additives, in the attempt to increase the encapsulation capacity of the vesicles.
In particular, in order to maximize tenofovir encapsulation the following parameters were studied: (1) tenofovir to GLH ratio; (2) adjusting the concentrations of cholestyrl hemisuccinate (CHEM) and cholesterol (CHOL), components that are used in the vesicle formulation, (3) examining several buffers and pHs in the encapsulation process, (4) time of sonication, and (5) tenofovir concentration, and (6) addition of stearyl amine to the vesicle formulation to enhance encapsulation by complexation with tenofovir.
The vesicles were prepared from formulations with and without SA and the non-encapsulated tenofovir (free tenofovir) was separated from the encapsulated tenofovir on Sephadex G50 column and the absorbance at 260 nm of each fraction collected from the column was read.

[2] = Fluorescence in cerebral cortex after i.v. injection of albumin-FITC; type: in vivo; conditions: mouse cerebral cortex fluorescence
Excerpt: FIG. 5A: Fluorescence in mouse cerebral cortex after i.v. injection of albumin-FITC (non-encapsulated) FIG. 5B: Fluorescence in mouse cerebral cortex after i.v. injection of albumin-FITC encapsulated in GLH-20 vesicles.

Compound	effect of stearyl amine on tenofovir encapsulation [1]	delivery to the brain ([2]; encapsulated in GLH-20 vesicles)	brain accumulation ([2]; un-encapsulated)
CCCCCCCCCCCCCCCCCCN [SA, stearyl amine]	increase tenofovir encapsulation		
Albumin-FITC: FITC-labelled protein albumin		delivered successfully to the brain	little, if any, brain accumulation
